Results taken from patent US20230287376, “IMMOBILIZED ENZYME COMPOSITIONS AND METHODS” (New England Biolabs, Inc., published 2023).

Legend:
HS-T4 DNA ligase = target: T1, HS-T4 DNA ligase (Enterobacteria phage T4, UniProt P00970 P00970:1-487); assay: ligation gel assay to SEQ 3 adaptor; agarose-immobilized form retains activity after 60-100 C, soluble form does not; conditions: tags: SNAP-tag fusion, soluble or immobilized on BG-agarose
T1 chain: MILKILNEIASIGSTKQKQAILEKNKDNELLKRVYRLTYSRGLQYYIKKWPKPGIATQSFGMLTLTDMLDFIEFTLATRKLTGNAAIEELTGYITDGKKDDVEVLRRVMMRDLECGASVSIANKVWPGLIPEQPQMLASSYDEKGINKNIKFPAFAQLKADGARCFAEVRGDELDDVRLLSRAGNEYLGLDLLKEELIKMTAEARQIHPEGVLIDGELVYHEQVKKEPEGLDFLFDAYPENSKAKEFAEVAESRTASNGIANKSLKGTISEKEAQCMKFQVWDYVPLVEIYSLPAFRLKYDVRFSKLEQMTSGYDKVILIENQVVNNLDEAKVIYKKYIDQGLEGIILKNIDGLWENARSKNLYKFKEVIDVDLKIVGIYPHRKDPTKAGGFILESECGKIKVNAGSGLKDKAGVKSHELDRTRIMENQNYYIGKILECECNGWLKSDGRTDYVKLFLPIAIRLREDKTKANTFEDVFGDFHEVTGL
Description: (§1) A FAM-labeled DNA duplex was formed by annealing synthetic oligomer, Gene32FAM-fw3′A, /56-FAMN/CA TGGTGATTACGATTCTTGCCCAGTATGTCAATACATCAGTAAAAATA (SEQ ID NO:1) and Gene32-rv5′p, /5Phos/AT TTTTACTGATGTATTGACATACTGGGCAAGAATCGTAATCAC CATG (SEQ ID NO:2).
(§2) For heat treatment, an aliquot of 15.83 μL from an enzyme master mixture was incubated at 4, 40, 60, 80, 90, 95 or 100° C. for 10 min, followed by addition of 9.17 μL of the DNA substrate mixture. All the ligation reactions were carried out at 4° C. overnight in a shaker. The samples were analyzed by electrophoresis on a 12% Tris-Glycine PAGE (Novex/Invitrogen) in 1×TAE Buffer for 2.5 hours at 25 mA (current). […] In contrast, HS-T4 DNA Ligase immobilized to BG-Agarose beads retained enzymatic activity after treatment in the same range of elevated temperature tested.

T4 DNA ligase = target: T2, T4 DNA ligase (Enterobacteria phage T4, UniProt P00970 P00970:1-487); assay: ligation gel assay to SEQ 3 adaptor, 4 C; no activity after 60-100 C pretreatment; conditions: tags: untagged, NEB M0202
T2 sequence: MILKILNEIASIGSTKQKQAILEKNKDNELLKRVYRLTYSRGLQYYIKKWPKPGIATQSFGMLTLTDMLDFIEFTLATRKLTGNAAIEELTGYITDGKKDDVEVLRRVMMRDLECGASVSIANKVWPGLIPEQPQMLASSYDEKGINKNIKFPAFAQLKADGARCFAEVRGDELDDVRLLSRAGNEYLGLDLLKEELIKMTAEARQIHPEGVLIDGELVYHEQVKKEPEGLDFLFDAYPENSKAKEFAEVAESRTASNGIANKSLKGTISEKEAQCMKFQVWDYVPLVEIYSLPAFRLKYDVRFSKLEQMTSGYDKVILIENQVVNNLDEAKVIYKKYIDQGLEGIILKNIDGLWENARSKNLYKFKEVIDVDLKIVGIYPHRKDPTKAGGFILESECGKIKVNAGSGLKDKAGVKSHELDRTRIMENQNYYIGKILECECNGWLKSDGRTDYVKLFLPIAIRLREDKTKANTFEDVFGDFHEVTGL
Description: as §1, §2

B1: Gene32 FAM duplex + TA adaptor (dsDNA)
DNA 1: CATGGTGATTACGATTCTTGCCCAGTATGTCAATACATCAGTAAAAATA
DNA 2: ATTTTTACTGATGTATTGACATACTGGGCAAGAATCGTAATCACCATG
modifications: 5'-phosphate on SEQ 2
binding result (HS-T4 DNA ligase): binds
binding result (T4 DNA ligase): binds
